From US11491206 (DUKE UNIVERSITY, dated 2022)

Biological target: T1, death receptor 5 (DR5) (UniProt O14763 56-182, limits assumed)
T1 construct: also called TRAIL Receptor 2; TRAILR2
Assay: not stated (told in the legend of the schematic FIG. 1A)

T1 sequence (O14763 56-182 limits assumed): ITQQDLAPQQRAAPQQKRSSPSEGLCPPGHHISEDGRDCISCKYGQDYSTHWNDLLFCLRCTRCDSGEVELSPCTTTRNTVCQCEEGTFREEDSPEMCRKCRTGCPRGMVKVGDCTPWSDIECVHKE

B1: DRA monomer (single Tn3 type III fibronectin domain of tenascin engineered to bind death receptor 5) (designed binder)
chain: GAIEVKDVTDTTALITWAKPWVDPPPLWGCELTYGIKDVPGDRTTIDLQQKHTAYSIGNLKPDTEYEVSLICFDPYGMRSKPAKETFTT
notes: also called Tn3 monomer; monomer of the Tn3 domain
Q: Which Kd does the source give for B1 here?
A: Its Kd is 43 nM.
